From patent US20070004622A1 (REGEN BIOTECH, published 2007) come the findings set out here.

The assay has as its target αvβ3 integrin (human, UniProt P06756 31-1048; P05106 27-788). As to the kind of experiment: cell-based or functional assay.

αvβ3 integrin, sequence (P06756 31-1048, chain 1 of 2): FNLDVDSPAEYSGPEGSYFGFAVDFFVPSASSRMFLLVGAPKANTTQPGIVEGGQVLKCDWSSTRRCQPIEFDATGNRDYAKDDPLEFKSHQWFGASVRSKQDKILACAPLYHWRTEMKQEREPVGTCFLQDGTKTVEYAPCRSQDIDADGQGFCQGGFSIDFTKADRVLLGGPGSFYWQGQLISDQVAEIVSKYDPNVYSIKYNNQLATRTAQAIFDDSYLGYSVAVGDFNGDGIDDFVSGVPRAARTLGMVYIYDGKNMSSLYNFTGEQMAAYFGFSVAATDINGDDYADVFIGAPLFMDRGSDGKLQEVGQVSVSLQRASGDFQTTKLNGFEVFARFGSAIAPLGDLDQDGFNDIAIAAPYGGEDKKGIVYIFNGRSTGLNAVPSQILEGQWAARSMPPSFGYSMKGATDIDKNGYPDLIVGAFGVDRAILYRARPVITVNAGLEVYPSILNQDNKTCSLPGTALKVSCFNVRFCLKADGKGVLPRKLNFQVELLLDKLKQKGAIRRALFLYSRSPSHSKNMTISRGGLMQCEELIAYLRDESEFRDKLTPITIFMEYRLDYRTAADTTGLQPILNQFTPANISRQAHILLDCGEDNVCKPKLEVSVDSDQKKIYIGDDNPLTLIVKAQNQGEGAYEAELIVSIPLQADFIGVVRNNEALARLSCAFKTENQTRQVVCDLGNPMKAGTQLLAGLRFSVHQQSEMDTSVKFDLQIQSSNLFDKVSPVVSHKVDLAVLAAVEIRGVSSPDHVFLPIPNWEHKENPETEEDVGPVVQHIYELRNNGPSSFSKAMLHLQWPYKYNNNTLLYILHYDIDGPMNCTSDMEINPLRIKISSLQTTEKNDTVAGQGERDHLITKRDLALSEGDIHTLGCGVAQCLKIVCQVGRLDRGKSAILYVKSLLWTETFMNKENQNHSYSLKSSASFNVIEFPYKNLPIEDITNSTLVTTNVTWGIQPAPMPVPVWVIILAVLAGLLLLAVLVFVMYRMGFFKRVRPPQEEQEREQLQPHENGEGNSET
αvβ3 integrin, sequence (P05106 27-788, chain 2 of 2): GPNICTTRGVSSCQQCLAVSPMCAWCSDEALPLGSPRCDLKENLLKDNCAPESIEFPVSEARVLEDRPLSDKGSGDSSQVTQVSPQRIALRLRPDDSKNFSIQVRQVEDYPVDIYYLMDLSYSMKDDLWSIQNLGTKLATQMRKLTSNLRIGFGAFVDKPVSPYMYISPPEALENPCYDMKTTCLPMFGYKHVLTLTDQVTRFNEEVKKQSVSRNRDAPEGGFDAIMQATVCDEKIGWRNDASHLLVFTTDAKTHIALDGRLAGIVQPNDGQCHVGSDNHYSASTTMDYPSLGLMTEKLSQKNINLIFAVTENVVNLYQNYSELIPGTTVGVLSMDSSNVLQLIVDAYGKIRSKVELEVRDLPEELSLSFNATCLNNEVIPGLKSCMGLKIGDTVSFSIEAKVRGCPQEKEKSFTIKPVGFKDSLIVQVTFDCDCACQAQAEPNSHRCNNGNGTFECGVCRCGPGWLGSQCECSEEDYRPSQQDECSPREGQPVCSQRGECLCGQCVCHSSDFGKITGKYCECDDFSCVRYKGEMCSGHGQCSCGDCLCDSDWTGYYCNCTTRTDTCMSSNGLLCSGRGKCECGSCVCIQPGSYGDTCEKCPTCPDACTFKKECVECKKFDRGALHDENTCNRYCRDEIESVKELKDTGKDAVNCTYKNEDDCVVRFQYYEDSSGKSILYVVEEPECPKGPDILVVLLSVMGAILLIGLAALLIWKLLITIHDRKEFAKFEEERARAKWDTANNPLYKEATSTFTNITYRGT

B1: YH18 synthetic peptide derived from the fourth fas-1 domain of βig-h3 (D-IV YH18) (peptide)
peptide: KELANILKYHIGDEILVS
As for B1, the “IC50 of inhibition of HUVEC tube formation on Matrigel” value came out at 500 µM.
